cAMP EC50, 4.2% cyno serum albumin and cAMP EC50 data for 7 molecules are collected here from US20160185837A1, “GIP AND GLP-1 RECEPTOR DUAL-AGONISTS FOR THE TREATMENT OF DIABETES” (Medimmune Limited, priority 2013, published 2016).

What all share (experiment): cell-based or functional assay
Assay [1] addresses cynomolgus monkey glucagon receptor (cynomolgus monkey).
The target in assay [2] is cynomolgus monkey GLP-1 receptor (cynomolgus monkey) (UniProt F8V479).
The target of assay [3] is T1, mouse GIP receptor (mouse) (UniProt Q0P543).
T1 sequence (looked up): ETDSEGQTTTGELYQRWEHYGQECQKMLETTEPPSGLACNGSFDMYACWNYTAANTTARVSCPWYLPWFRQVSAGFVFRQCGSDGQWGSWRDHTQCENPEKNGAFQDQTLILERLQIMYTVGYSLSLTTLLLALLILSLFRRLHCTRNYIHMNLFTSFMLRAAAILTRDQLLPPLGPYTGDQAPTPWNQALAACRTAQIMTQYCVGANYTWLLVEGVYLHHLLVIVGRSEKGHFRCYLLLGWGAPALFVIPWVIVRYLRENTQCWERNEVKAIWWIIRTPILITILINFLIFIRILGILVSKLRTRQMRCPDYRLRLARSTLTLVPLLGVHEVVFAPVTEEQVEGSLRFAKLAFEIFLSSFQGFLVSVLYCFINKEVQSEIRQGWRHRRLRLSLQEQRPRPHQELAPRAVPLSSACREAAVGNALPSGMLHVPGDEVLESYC

The target in assay [4] is human glucagon receptor (human) (UniProt P47871).
human glucagon receptor (human), sequence (P47871 26-477): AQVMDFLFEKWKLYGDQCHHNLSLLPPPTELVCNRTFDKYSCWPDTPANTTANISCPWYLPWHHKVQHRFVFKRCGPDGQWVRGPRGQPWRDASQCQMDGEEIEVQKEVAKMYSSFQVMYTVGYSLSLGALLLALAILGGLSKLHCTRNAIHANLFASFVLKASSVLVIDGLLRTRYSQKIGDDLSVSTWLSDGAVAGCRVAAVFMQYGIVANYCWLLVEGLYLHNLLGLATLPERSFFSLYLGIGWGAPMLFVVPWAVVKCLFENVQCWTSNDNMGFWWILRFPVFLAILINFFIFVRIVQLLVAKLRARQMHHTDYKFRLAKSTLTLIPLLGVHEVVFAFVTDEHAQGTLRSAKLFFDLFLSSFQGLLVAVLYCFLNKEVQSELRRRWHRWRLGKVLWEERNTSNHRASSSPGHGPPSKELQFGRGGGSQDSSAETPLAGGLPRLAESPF
For the next assay, the target named is rat GLP-1 receptor (rat) (UniProt P32301).
rat GLP-1 receptor (rat), sequence (P32301 22-463): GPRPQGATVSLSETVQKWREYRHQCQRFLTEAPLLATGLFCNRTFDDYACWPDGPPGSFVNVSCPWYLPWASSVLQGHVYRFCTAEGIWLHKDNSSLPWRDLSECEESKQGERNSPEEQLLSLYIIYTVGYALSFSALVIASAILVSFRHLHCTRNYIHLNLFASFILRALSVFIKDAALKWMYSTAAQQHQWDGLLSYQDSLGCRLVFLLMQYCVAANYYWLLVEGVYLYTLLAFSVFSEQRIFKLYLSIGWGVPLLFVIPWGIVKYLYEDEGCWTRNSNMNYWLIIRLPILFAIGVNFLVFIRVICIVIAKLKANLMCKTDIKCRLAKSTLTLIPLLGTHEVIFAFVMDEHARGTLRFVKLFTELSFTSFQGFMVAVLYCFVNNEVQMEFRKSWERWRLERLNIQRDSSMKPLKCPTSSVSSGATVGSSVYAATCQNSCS
Assay [5] addresses T2, human GIP receptor (human) (UniProt P48546).
T2 sequence (looked up): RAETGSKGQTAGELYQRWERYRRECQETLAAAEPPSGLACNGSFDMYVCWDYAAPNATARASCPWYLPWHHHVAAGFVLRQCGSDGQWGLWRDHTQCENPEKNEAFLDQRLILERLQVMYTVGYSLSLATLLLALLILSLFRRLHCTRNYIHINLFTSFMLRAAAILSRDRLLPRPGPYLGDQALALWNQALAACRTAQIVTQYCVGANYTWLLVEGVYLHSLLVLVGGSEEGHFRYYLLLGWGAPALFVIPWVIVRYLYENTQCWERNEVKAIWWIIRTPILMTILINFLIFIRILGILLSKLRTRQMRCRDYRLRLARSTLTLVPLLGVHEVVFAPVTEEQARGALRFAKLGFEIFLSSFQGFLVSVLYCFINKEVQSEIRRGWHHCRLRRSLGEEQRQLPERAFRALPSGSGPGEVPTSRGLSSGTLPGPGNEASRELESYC

In assay [6] the target is mouse GLP-1 receptor (mouse) (UniProt O35659).
mouse GLP-1 receptor (mouse), sequence (O35659 22-463): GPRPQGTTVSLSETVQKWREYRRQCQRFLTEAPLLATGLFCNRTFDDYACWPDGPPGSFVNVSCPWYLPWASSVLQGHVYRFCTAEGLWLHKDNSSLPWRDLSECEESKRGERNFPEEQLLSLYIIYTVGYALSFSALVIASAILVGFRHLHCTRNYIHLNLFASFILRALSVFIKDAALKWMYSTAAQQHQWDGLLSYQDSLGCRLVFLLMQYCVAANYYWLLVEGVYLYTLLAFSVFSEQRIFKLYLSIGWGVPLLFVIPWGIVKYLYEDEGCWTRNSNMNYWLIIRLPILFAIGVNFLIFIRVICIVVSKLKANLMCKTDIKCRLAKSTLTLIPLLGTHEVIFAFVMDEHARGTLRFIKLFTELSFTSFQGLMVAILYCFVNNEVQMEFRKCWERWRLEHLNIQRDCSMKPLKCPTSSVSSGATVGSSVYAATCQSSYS
Another assay concerns the target T3, rat GIP receptor (rat) (UniProt P43219).
T3 sequence (looked up): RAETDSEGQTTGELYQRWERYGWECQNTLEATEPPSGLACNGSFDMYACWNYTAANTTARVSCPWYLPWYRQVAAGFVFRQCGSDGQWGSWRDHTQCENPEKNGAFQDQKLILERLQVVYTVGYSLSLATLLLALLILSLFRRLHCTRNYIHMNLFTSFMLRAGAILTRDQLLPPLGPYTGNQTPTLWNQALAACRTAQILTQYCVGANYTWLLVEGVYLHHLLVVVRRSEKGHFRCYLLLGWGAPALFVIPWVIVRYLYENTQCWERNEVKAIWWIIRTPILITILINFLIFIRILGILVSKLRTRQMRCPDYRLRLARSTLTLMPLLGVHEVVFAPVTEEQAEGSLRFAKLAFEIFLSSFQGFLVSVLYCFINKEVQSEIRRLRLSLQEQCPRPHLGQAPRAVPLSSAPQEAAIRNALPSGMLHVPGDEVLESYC

The target of assay [7] is human GLP-1 receptor (human) (UniProt P43220).
human GLP-1 receptor (human), sequence (P43220 24-463): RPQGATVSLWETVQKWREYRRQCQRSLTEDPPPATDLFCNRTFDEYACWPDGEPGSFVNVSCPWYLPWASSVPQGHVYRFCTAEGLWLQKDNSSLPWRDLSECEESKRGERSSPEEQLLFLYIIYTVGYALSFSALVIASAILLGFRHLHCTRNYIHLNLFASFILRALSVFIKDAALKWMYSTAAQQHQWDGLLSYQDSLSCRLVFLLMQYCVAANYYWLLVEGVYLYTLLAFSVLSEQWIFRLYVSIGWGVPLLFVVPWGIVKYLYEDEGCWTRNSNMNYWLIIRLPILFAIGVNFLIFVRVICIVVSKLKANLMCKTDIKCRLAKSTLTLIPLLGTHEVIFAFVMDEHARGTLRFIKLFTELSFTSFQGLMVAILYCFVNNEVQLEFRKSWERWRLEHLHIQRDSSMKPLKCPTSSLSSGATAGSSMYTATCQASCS

Positions count from the first letter of the chain named. Ends that are not written are not given here. Where only a bound is given, the exact number is not on record here.

cynomolgus monkey GLP-1 receptor (cynomolgus monkey), sequence (F8V479 entry or part of it): as the sequence (P43220 24-463) above, with S112N, F120S, S202G, L205V, L237F, W241R, I249V counted along it

B1: GLP-1 analogue-Fc (gamma4) fusion control (Fc fusion, not shown: a dimerising Fc or GST)
chain: HGEGTFTSDVSSYLEEQAAKEFIAWLVKGR
modifications: also: fused to linker, hinge and IgG4 Fc (not given here)
With B1, the cAMP EC50, 4.2% cyno serum albumin was above 1000 nM in assay [1] and 0.011 nM in assay [2].

B2: IP329 (Fc fusion)
chain: YSEGTFTSDYSKLLERQAIDEFIAELLKGGGGGGGSGGGGSGGGGSGGGGSGGGGSGGGGSA
B2: the cAMP EC50 in [3] is 2.6 nM; in [4], above 1430 nM; with rat GLP-1 receptor (rat), 0.18 nM; in assay [5] it was 0.011 nM; in [6], 9 nM; with rat GIP receptor (rat), 0.06 nM. The cAMP EC50 in assay [7] turned out to be 1.4 nM.

B3: IP307 (Fc fusion)
chain: YSEGTFTSDVSSYMERQAIDEFIAWLLKQGAAAGGSGSTASSGSGSATGGGGAATHTCPPC
Regarding B3, the cAMP EC50 in assay [3] stood at 31 nM; in [4], 4100 nM; with rat GLP-1 receptor (rat), 0.21 nM; in assay [5], 0.091 nM; in [6], 6.5 nM; with rat GIP receptor (rat), 5.2 nM. The same molecule yielded a cAMP EC50 in [7] of 1.6 nM.

B4: IP309 (Fc fusion)
chain: B3 chain with T7I, M14L, Q29G
For the molecule B4, the cAMP EC50 was found to be 15 nM in assay [3]; 900 nM in [4]; 1.7 nM with rat GLP-1 receptor (rat); 0.086 nM in [5]; 16 nM in assay [6]; 1.3 nM in the assay with rat GIP receptor (rat). Moreover, the cAMP EC50 in [7] came out at 7.7 nM.

B5: IP312 (Fc fusion)
chain: B3 chain with T7I, Q29G
For the molecule B5, the cAMP EC50 in [3] is 16 nM; in assay [4] it was above 5310 nM; with rat GLP-1 receptor (rat), 5.4 nM; in [5], 0.048 nM; in [6], above 1060 nM; with rat GIP receptor (rat) it was 1.2 nM. In addition, the cAMP EC50 in [7] was above 5310 nM.

B6: IP310 (Fc fusion)
chain: B3 chain with Q29G, G30K
With B6, the cAMP EC50 in assay [3] came out at 31 nM; in assay [4] it was 3700 nM; in the assay with rat GLP-1 receptor (rat), 0.038 nM; in [5], 0.15 nM; in assay [6] it was 1.4 nM; in the assay with rat GIP receptor (rat), 5.2 nM. Moreover, in [7], the cAMP EC50 worked out at 0.35 nM.

B7: IP315 (Fc fusion)
chain: B3 chain with T7I, V10Y, M14L, Q29G
On to B7, for which the cAMP EC50 is 0.36 nM in [3]; 280 nM in assay [4]; 13 nM in the assay with rat GLP-1 receptor (rat); 0.024 nM in [5]; above 5460 nM in assay [6]; 0.096 nM in the assay with rat GIP receptor (rat). This molecule returned a cAMP EC50 in assay [7] above 5460 nM.
